Assay: yeast display, Sf9 membrane polyspecificity reagent, FACS + sequencing; frameworks hold sequencing errors
In short: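 A nanobody's polyreactivity label depends on the gate it was sorted from. Yeast display cells were stained with 10% biotinylated, detergent-solubilized Sf9 membrane reagent for 1 hour at 4 °C, enriched on streptavidin microbeads and sorted by FACS. The low and high (top ~1%) gates were set on anti-HA fluorescence for expression and streptavidin fluorescence for reagent binding.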

| Sequence | polyreactivity (PSR sort gate) |
| --- | --- |
| QVQLVESGGGLVQAGGSLRLSCAASGSIFAYYAMGWYRQAPGKERELVAGIRISGGRTYYADSVKGRFTISRDTAKNTVYLQMNSLKPEDTAVYYCNARWRGFRTGAGDYWGQGTQVTVSS | high polyreactivity |
| QVQLVESGGGLVQAGGSLRLSCAASGSIFAYYVMGWYRPAPGKERELVAAITRAGSTYYADSVKGRFTISRDNGKNTVYLQMNSLKPEVSAVYYCDARVGYYFRPESYYWGQGTKVTVSS | high polyreactivity |
| QVQLVESGGGLVQAGGSLRLSCAASGSIFCVYAMGWYRQAPGKERELVAAISQSGGRTYYADSVKGRFTISRDNAKNTVYLQMNSLKPEDTAVYYCAAVVFNVYRRYWGQGTQVTVSS | high polyreactivity |
| QVQLVESGGGLVQAGGSLRLSCAASGSIFCYALGWNRQAPGKKRELVAAITGRCTSTYADSVKGRFTISLDNAKNTVYLQTNSLKPEDTAVYYCGPVGWFAEFLFSDIYGYYWGQGTQVTVSS | low polyreactivity |
| QVQLVESGGGLVQAGGSLRLSCAASGSIFDAYAMGWYRQAPGKERELVAAITTGGGSTYYADSVMGRFTISRDNAKNTVYLQMNSLKPEDTAVYYCARDYGKYKGYYWGQGTQVTVSS | low polyreactivity |
| QVQLVESGGGLVQAGGSLRLSCAASGSIFDDYAMGWYRQAPGKERELVAAISSSGTSTYYADSVKGRFTISRDNAKNTVYLQMNSLKQEDTAVYYCAARSAILKSGYLMDYWGQGTQVTVSS | low polyreactivity |
| QVQLVESGGGLVQAGGSLRLSCAASGSIFDDYAMGWYRQAPGKERELVAAISWSGGRTYYADSVKGRFTISRDNAKNTVYLQMNSLKPEDTAVYYCAATTGVRSRRYYYWGQGTQVTVSS | low polyreactivity |
| QVQLVESGGGLVQAGGSLRLSCAASGSIFDFNAMGWYRQAPGKERELVATIRYSGGSTYYADSVKGRFTISRDNAKNTVYLQMNSLKPEDTAVYYCIFRSPSYEYDYWGQGTQVTVSS | low polyreactivity |
| QVQLVESGGGLVQAGGSLRLSCAASGSIFDFNTMGWYIQAPGKERELVAAISQRTGRTYYADSVKGRFTISRDKAKNTVYLQMNSLKPEDTAVYYCAKVAVAGRGSGNYINHRFEYWGQGTQVTVSS | high polyreactivity |
| QVQLVESGGGLVQAGGSLRLSCAASGSIFDGYAMGWYRQAPGTERELVAGISGRGTRTYYADSVKGRFTISRDYAMNTVYLQMNSLKPEDTAVYYCNKAGYFHRLKYYYWGQGTQVTVSS | high polyreactivity |
| QVQLVESGGGLVQAGGSLRLSCAASGSIFDIYAMGWYRQAPGKERELVADITISGGSTYYADSVKGRFTISRDNAKNTVYLQMNSLKPEDTAVYYCAADVTVVLGYKYDYWGQGTQVTVSS | low polyreactivity |
| QVQLVESGGGLVQAGGSLRLSCAASGSIFDIYGMGWYRQAPGKERELVASISRGAGSTNYADSVKGRFTISRDNAKNTVYLQMNSLKPEDTAVYYCAAEVYVPDYFQHKFDVEYEYWGQGTQVTVSS | low polyreactivity |
| QVQLVESGGGLVQAGGSLRLSCAASGSIFDKNAMGWYRQAPGKERELVAAIRRTSTTYYADSVKGRFTISRDNAKKTVYLQMNSLKPEDTAVYYCAATYGSGYWYPRYYYWGQGTQVTVSS | high polyreactivity |
| QVQLVESGGGLVQAGGSLRLSCAASGSIFDLIAMGWYRQAPGKERELVAAISSGGGTYYADSVKGRFTISRDNAKNTVYLQMNSLKPEDTAVYYCNRVTRWTYNYWGQGTQVTVSS | high polyreactivity |
| QVQLVESGGGLVQAGGSLRLSCAASGSIFDLYAMGWYRQAPGKERELVAAINSGGSTYADSVKGRFTISRDNSKNTVYLQMNSLKPEDTAVYYCNADYRHSLGSGYDYWGQVTQVTVSS | low polyreactivity |
| QVQLVESGGGLVQAGGSLRLSCAASGSIFDLYAMGWYRQAPGKERELVDAISSGATTNYADSVKGRFTISRDNAKNTVYLQMNSLKPEDTAVYYCAKYYRISSLYVIVSAYDYWGQGTQVTVSS | low polyreactivity |
